16 molecules from article PMC6030046, “Trapping of the transport-segment DNA by the ATPase domains of a type II topoisomerase” (Nature Communications, 2018) can be followed below.

B1: Streptococcus pneumoniae ParE44 ATPase domain (residues 1-402) (domain or fragment, UniProt Q59961 1-402, looked up)
chain: MSKKEININNYNDDAIQVLEGLDAVRKRPGMYIGSTDGAGLHHLVWEIVDNAVDEALSGFGDRIDVTINKDGSLTVQDHGRGMPTGMHAMGIPTVEVIFTILHAGGKFGQGGYKTSGGLHGVGSSVVNALSSWLEVEITRDGAVYKQRFENGGKPVTTLKKIGTAPKSKTGTKVTFMPDATIFSTTDFKYNTISERLNESAFLLKNVTLSLTDKRTNEAIEFHYENGVQDFVSYLNEDKEILTPVLYFEGEDNGFQVEVALQYNDGFSDNILSFVNNVRTKDGGTHETGLKSAITKVMNDYARKTGLLKEKDKNLEGSDYREGLAAVLSILVPEEHLQFEGQTKDKLGSPLARPVVDGIVADKLTFFLMENGELASNLIRKAIKARDAREAARKARDESRNG
notes: ParE subunit of topoisomerase IV, Streptococcus pneumoniae, UniProt Q59961, residues 1-402 (ATPase domain); Crystallised as a closed dimer with AMP-PNP, Mg2+ and duplex DNA; also called ParE ATPase domain; N-terminal ParE44; source: E. coli BL21 λDE3, purified (Ni-NTA)
B2: 6-mer GCGCGC duplex (dsDNA)
DNA 1: GCGCGC
DNA 2: GCGCGC
B3: 14-mer T-segment duplex (dsDNA)
DNA 1: GCATATATATATGC
DNA 2: GCATATATATATGC

For the first data set, the target named is Streptococcus pneumoniae topoisomerase IV ParC subunit, full length (Streptococcus pneumoniae) (UniProt P72525).
Test: not given
Settings: not given
For “ParE D269V, full length (from UniProt Q59961 1-647) (enzyme)”, the Cleavage: ATP-independent quinolone-promoted DNA cleavage activity of topo IV reconstituted from ParC and ParE, relative to wild type turned out to be 100%.

Consider “ParE K281Q/D282A, full length (from UniProt Q59961 1-647) (enzyme)”, for which the Cleavage: ATP-independent quinolone-promoted DNA cleavage activity of topo IV reconstituted from ParC and ParE, relative to wild type was 100%.

The molecule “ParE K291Q, full length (from UniProt Q59961 1-647) (enzyme)” gave a Cleavage: ATP-independent quinolone-promoted DNA cleavage activity of topo IV reconstituted from ParC and ParE, relative to wild type of 100%.

On to “ParE K313Q/E316Q, full length (from UniProt Q59961 1-647) (enzyme)”, for which the Cleavage: ATP-independent quinolone-promoted DNA cleavage activity of topo IV reconstituted from ParC and ParE, relative to wild type turned out to be 100%.

Consider “ParE K346Q, full length (from UniProt Q59961 1-647) (enzyme)”, for which the Cleavage: ATP-independent quinolone-promoted DNA cleavage activity of topo IV reconstituted from ParC and ParE, relative to wild type came out at 100%.

“ParE K346Q/R353A, full length (from UniProt Q59961 1-647) (enzyme)” displayed a Cleavage: ATP-independent quinolone-promoted DNA cleavage activity of topo IV reconstituted from ParC and ParE, relative to wild type of 100%.

“ParE R321Q, full length (from UniProt Q59961 1-647) (enzyme)” registered a Cleavage: ATP-independent quinolone-promoted DNA cleavage activity of topo IV reconstituted from ParC and ParE, relative to wild type of 100%.

On to “ParE R353A, full length (from UniProt Q59961 1-647) (enzyme)”, for which the Cleavage: ATP-independent quinolone-promoted DNA cleavage activity of topo IV reconstituted from ParC and ParE, relative to wild type was 100%.

Molecule “ParE R353Q, full length (from UniProt Q59961 1-647) (enzyme)” displayed a Cleavage: ATP-independent quinolone-promoted DNA cleavage activity of topo IV reconstituted from ParC and ParE, relative to wild type of 100%.

In the case of “ParE R396Q, full length (from UniProt Q59961 1-647) (enzyme)”, the Cleavage: ATP-independent quinolone-promoted DNA cleavage activity of topo IV reconstituted from ParC and ParE, relative to wild type amounted to 100%.

“ParE R400Q, full length (from UniProt Q59961 1-647) (enzyme)” had a Cleavage: ATP-independent quinolone-promoted DNA cleavage activity of topo IV reconstituted from ParC and ParE, relative to wild type of 100%.

The molecule “ParE S268A, full length (from UniProt Q59961 1-647) (enzyme)” yielded a Cleavage: ATP-independent quinolone-promoted DNA cleavage activity of topo IV reconstituted from ParC and ParE, relative to wild type of 100%.

For “Streptococcus pneumoniae topoisomerase IV ParE subunit, wild type, full length (from UniProt Q59961 1-647) (enzyme)”, the Cleavage: ATP-independent quinolone-promoted DNA cleavage activity of topo IV reconstituted from ParC and ParE, relative to wild type was 100%.

Another data set deals with the molecule itself. Put plainly: crystal structure; ParE44 co-crystallised with 14-mer duplex DNA 5'-…-3', 2 mM AMP-PNP, 10 mM MgCl2; sitting drop, 50 mM HEPES pH 7.0, 5 mM MgCl2, 25% PEG MME 550; through-hole DNA bound complex, space group C2, 2.83 Å.
Settings: not given
In the case of B1, the binding result is “binds”.

The target in another data set is T1, ParE44 (topoisomerase IV ParE ATPase domain) (Streptococcus pneumoniae, UniProt Q59961 1-402). Put plainly: X-ray crystallography (1.97 A); AMP-PNP, Mg2+; side-bound outside the hole, two duplexes per dimer; Co-crystallization: protein:DNA 1:2.2, 10 mM MgCl2, 2 mM AMP-PNP, protein in 20 mM Tris-HCl pH 7.5, 100 mM NaCl, 1 mM 2-mercaptoethanol; 14-mer: 50 mM HEPES pH. Particulars: protein: recombinant; tags: C-terminal 6xHis; chain copies: 2; blunt; self-complementary.
Turning to B2, the binding result was “binds”.

Another data set addresses T1, ParE44 (topoisomerase IV ParE ATPase …). Put plainly: X-ray crystallography (2.83 A); AMP-PNP, Mg2+; DNA kinked in the dimer hole, one duplex per dimer; putative intercalated AMP-PNP; Co-crystallization: protein:DNA 1:2.2, 10 mM MgCl2, 2 mM AMP-PNP, protein in 20 mM Tris-HCl pH 7.5, 100 mM NaCl, 1 mM 2-mercaptoethanol; 14-mer: 50 mM HEPES pH. The conditions noted are these: protein: recombinant; tags: C-terminal 6xHis; chain copies: 2; blunt; self-complementary.
On to B3, for which the binding result is reported as “binds”.
